Measured values reported in article PMC9016349, “HOIL‐1 ubiquitin ligase activity targets unbranched glucosaccharides and is required to prevent polyglucosan accumulation” (The EMBO Journal, 2022).

Molecular target: T1, His‐Halo‐tagged Met1‐linked ubiquitin tetramer (human, UniProt P0CG48 1-76; P0CG48 1-76; P0CG48 1-76; P0CG48 1-76)
T1 construct: ubiquitin (76-residue mature product of the polyubiquitin precursor), repeat 1 of 4, joined head to tail through Met1; ubiquitin (76-residue mature product), repeat 2 of 4; ubiquitin (76-residue mature product), repeat 3 of 4; ubiquitin (76-residue mature product), repeat 4 of 4; Tag end read from the printed name Halo‐M1‐Ub4; Covalently coupled to HaloLink resin through the Halo tag; also called …
T1 sequence (P0CG48 1-304, one chain of several): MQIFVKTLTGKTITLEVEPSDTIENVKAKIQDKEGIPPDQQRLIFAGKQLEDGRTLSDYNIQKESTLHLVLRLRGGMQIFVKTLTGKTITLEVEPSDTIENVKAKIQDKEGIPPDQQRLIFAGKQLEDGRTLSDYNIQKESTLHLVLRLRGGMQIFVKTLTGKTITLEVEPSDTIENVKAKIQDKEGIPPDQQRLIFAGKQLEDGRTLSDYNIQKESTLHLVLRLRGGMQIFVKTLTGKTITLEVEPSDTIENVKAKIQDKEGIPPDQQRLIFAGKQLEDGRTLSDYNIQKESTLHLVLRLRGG
Experiment: pull-down; Halo‐tagged M1‐linked tetraubiquitin covalently coupled to HaloLink resin; 10 μl beads with 2 μg bacterially expressed HOIL‐1 protein in 0.5 ml PBS pH 7.4, 0.001% NP‐40, 1 mM TCEP, 0.01 mg/ml BSA, 3.5 h at 4°C; bound protein detected by Coomassie staining
Details: both partners purified

B1: HOIL‐1 (haem‐oxidised IRP2 ubiquitin ligase‐1), full‐length untagged human, wild type (enzyme, UniProt Q9BYM8 1-510, looked up)
chain: MDEKTKKAEEMALSLTRAVAGGDEQVAMKCAIWLAEQRVPLSVQLKPEVSPTQDIRLWVSVEDAQMHTVTIWLTVRPDMTVASLKDMVFLDYGFPPVLQQWVIGQRLARDQETLHSHGVRQNGDSAYLYLLSARNTSLNPQELQRERQLRMLEDLGFKDLTLQPRGPLEPGPPKPGVPQEPGRGQPDAVPEPPPVGWQCPGCTFINKPTRPGCEMCCRARPEAYQVPASYQPDEEERARLAGEEEALRQYQQRKQQQQEGNYLQHVQLDQRSLVLNTEPAECPVCYSVLAPGEAVVLRECLHTFCRECLQGTIRNSQEAEVSCPFIDNTYSCSGKLLEREIKALLTPEDYQRFLDLGISIAENRSAFSYHCKTPDCKGWCFFEDDVNEFTCPVCFHVNCLLCKAIHEQMNCKEYQEDLALRAQNDVAARQTTEMLKVMLQQGEAMRCPQCQIVVQKKDGCDWIRCTVCHTEICWVTKGPRWGPGGPGDTSGGCRCRVNGIPCHPSCQNCH
notes: HOIL‐1 (RBCK1), human, full length (residues 1-510 by the printed construct limits); Tag end read from the printed name His6‐SUMO‐HOIL‐1; also called RBCK1; wild‐type HOIL‐1; source: E. coli BL21 (DE3), purified (tag removed with Ulp1; size exclusion chromatography or dialysis); not shown: His6, N-terminal, cleaved; SUMO, N-terminal, cleaved
  binding result: binds
